In publication PMC10444775 (Scientific Reports, 2023):

Assays:
Conditions in all cases: both partners purified
[1] = biological target: CoV-2-S-RBD-SD1 spike construct (SARS-CoV-2, UniProt P0DTC2); assay: ELISA
[2] = biological target: SARS-CoV-2 RBD domain (used for HDX-MS of 7A9) (SARS-CoV-2, reference strain …); assay: HDX-MS
[3] = biological target: CoV-2-S-RBD construct used for x-ray crystallography (SARS-CoV-2, UniProt P0DTC2); assay: crystal structure

Measured: binding result

B1: 7A9 VHH (VHH)
VHH: QVQLVESGGGLVQAGGSLRLSCSASGGTASRSAMGWFRQAPGKEREFVAGISRRNSGSTYVADSYEDSVKGRFTISRDNAKNTIYLQMNSLKPEDTAVYYCAAEPTLGWYVPRRSVEYEYWGQGTQVTVSS
binds: all assays above
